# Assay results: US20060099671
# Test system: human plasminogen
# Sequence (chain, as listed by the source): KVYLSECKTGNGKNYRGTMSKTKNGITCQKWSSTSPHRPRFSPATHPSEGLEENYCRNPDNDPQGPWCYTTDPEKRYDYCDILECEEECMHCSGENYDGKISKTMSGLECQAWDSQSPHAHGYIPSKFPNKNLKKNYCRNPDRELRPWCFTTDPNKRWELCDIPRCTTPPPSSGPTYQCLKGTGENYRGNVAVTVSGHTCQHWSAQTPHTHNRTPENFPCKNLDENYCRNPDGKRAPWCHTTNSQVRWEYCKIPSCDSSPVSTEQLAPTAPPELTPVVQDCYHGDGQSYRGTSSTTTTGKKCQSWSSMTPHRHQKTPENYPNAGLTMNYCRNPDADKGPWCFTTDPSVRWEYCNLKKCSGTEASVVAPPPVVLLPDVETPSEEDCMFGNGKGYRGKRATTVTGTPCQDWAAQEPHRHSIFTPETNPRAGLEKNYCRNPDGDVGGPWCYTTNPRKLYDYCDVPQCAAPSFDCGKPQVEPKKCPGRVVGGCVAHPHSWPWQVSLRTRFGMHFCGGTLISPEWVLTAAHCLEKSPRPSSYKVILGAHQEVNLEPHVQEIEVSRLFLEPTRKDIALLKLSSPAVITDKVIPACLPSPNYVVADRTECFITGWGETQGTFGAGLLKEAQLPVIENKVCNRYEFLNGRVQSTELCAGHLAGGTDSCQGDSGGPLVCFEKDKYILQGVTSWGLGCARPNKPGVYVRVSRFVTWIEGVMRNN
Substance,conversion of plasminogen to plasmin (Coomassie-stained reduced polyacrylamide gels),production of angiostatin (western blot)
urokinase-type plasminogen activator (u-PA),The complete conversion of plasminogen to plasmin was confirmed,"incubation of plasminogen (0.2 µM) with u-PA (0.2 nM), t-PA (1.0 nM), or streptokinase (8.0 nM) with 100 µM N-acetyl-L-cysteine resulted in the production of angiostatin"
tissue-type plasminogen activator (t-PA),–,"incubation of plasminogen (0.2 µM) with u-PA (0.2 nM), t-PA (1.0 nM), or streptokinase (8.0 nM) with 100 µM N-acetyl-L-cysteine resulted in the production of angiostatin"
